In patent publication US20060234940A1 (OSI PHARMACEUTICALS, published 2006):
Where no end group is shown, it is not given here. The star is where a group is joined. Thia = thiazolidide, C1CN(*)CS1

What was measured:
[1] = target: T1, porcine kidney DP IV, wild type (porcine, UniProt P22411 38-766, natively glycosylated (Asn279 among others, as seen in the crystal)); assay: MALDI-TOF MS, inhibition of DP IV-catalyzed truncation of the substrate GLP-1 after preincubation with TFTSDY
T1 construct: In the crystal a 2-2-2 symmetric tetramer (dimer of dimers); also called p wt DP IV; p wt
T1 sequence (P22411 38-766): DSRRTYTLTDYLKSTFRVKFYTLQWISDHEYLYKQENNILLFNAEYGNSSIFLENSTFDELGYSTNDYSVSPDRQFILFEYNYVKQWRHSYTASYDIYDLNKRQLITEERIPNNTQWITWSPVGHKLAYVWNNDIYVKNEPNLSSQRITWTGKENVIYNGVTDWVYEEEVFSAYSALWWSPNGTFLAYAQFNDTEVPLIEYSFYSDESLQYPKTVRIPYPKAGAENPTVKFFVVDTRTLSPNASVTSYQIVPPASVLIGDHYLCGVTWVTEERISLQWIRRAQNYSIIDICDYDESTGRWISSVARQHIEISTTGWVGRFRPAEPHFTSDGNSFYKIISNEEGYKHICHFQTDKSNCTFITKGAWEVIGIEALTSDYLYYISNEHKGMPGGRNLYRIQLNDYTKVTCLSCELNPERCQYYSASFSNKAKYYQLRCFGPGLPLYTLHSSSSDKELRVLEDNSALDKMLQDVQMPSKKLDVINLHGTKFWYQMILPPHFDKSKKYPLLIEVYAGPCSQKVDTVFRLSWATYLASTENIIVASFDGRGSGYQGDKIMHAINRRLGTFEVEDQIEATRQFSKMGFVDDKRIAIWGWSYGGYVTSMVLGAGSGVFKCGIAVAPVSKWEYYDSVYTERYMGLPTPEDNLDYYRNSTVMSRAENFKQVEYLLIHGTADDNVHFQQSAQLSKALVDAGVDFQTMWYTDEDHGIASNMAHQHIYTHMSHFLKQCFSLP

[2] = target: T1, porcine kidney DP IV, wild type; assay: MALDI-TOF MS, inhibition of DP IV-catalyzed truncation of the substrate NPY after preincubation with TFTSDY
[3] = target: DP IV; assay: photometric assay, competition with the standard substrate GP-4-nitroanilide; source of DP IV not stated
Chain of DP IV (chain, as listed by the source): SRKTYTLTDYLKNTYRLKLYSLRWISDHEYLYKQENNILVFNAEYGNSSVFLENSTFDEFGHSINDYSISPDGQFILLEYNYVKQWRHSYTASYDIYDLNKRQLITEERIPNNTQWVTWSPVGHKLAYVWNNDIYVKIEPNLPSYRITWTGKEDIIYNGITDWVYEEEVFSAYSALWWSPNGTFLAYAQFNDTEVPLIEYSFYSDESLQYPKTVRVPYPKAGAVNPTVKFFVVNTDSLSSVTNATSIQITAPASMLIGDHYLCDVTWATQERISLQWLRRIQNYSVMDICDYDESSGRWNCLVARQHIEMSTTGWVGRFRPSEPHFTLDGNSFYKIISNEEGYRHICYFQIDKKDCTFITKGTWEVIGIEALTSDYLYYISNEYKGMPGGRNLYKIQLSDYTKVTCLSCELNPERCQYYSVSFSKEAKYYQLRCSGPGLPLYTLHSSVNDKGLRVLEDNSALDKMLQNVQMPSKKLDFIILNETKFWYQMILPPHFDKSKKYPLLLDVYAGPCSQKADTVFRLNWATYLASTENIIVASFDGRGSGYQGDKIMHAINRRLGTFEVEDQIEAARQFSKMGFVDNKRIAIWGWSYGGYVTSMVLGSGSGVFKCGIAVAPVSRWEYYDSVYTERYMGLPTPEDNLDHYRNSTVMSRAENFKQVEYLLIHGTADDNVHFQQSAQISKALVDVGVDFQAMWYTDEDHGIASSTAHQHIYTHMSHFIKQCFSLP

[4] = target: T1, porcine kidney DP IV, wild type; assay: MALDI-TOF MS, inhibition of DP IV-catalyzed truncation of the substrate GIP after preincubation with TFTSDY
[5] = target: T1, porcine kidney DP IV, wild type; assay: MALDI-TOF MS, inhibition of DP IV-catalyzed truncation of the substrate RANTES1-15 after preincubation with TFTSDY
[6] = target: T1, porcine kidney DP IV, wild type; assay: MALDI-TOF MS, inhibition of DP IV-catalyzed truncation of the substrate glucagon after preincubation with TFTSDY
[7] = target: T1, porcine kidney DP IV, wild type; assay: photometric assay, competition with the standard substrate GP-4NA
Method: (§1) In order to measure the inhibition constant Kᵢ a photometric assay was used The peptides were measured as competitors of the standard substrate GP-4-Nitroanilide. Three different substrate concentrations (0.4 mM to 0.05 mM) were combined with 8 different competitor concentrations (0.5 mM to 2 μM). […] Experiments were carried out under standard conditions: 30° C. in pH 7.6 40 mM HEPES (Sigma-Aldrich) buffer. Nitroaniline production was monitored using a HTS 7000+ microplate reader (PerkinElmer, Überlingen, Germany).

[8] = target: T2, recombinant human DP IV, mutation W629A (human, UniProt P27487 37-766); assay: as above
T2 construct: range 37-766; Same Pichia construct as the wild type, single mutation by site-directed mutagenesis; also called mu 16 DP IV; mu 16
T2 sequence (P27487 other isoform, or with tags, fused parts or gaps W629A W629A limits assumed): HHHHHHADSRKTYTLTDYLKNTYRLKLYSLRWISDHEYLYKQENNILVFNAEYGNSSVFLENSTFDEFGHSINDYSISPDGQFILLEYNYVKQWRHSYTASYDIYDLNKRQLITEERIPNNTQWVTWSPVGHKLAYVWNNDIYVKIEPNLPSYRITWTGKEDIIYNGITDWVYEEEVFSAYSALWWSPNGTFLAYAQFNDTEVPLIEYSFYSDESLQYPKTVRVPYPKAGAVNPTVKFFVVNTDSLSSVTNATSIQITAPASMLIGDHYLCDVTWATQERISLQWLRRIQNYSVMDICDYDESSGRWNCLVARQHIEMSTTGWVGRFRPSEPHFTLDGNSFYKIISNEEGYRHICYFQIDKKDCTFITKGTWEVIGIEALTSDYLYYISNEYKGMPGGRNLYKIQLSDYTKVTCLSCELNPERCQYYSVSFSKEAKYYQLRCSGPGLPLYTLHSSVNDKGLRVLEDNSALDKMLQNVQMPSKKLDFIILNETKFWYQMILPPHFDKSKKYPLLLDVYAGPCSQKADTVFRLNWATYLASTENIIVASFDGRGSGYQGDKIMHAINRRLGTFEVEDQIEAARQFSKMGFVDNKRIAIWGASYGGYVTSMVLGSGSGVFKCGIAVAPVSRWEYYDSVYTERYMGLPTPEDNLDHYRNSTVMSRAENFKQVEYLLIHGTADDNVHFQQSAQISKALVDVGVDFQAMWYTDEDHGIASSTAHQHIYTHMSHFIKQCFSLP
Method: as §1

[9] = target: T3, recombinant human DP IV, mutation R560A (human, UniProt P27487 37-766); assay: as above
T3 construct: range 37-766; Same Pichia construct as the wild type, single mutation by site-directed mutagenesis; also called mu 15 DP IV; mu 15
T3 sequence (P27487 other isoform, or with tags, fused parts or gaps R560A R560A limits assumed): as the sequence (P27487 other isoform, or with tags, fused parts or gaps W629A W629A limits assumed) above, with R530A, A599W counted along it
Method: as §1

B1: hexapeptide TFTSDY (peptide)
peptide: TFTSDY
notes: also called glucagon5-10; T(5)-F-T-S-D-Y
- Ki [1]: 13.7 µM
- Ki [2]: 17.2 µM
- Ki [3]: 710 µM
- Ki [4]: 65.9 µM
- Ki [5]: 12300 µM
- Ki [6]: 6.8 µM

Binder: HSDGIFTDSYSRYRKQMAVKKYLAAVL (peptide, UniProt P18509 132-158, looked up, ends and bridges not checked, range 132-158; also called PACAP(1-27)) [PACAP-27]
- Ki [7]: 54.3 µM

Binder: YAESTF-NH2 [YAESTF amide]
- Ki [8]: 1.06 µM
- Ki [9]: 1.14 µM

Binder: RRLSYSRRRFE-Thia (also: linkage of decapeptide to Glu not explained) [Transp 01 (RRLSYSRRRF-E-Thia)]
- Ki [8]: 0.0855 µM
- Ki [9]: 0.0769 µM
